Assay results published in US20260327578A1, “TRANSGLUTAMINASES AND USES THEREOF” (CURIE CO. INC., priority 2023, published 2026).

system: N,N-dimethylcasein; assay: Chemostability: residual Tgase activity after 24 hour incubation at 20-30 °C, normalized to wild-type; format: biochemical; conditions: improvement relative to wild-type mature Tgase (SEQ ID NO: 2); residual activity after 24 h at 20-30 °C in cell-free extract
Protocol: Table 5 depicts variants of Streptomyces mobaraensis Tgase and improvement to stability relative to wild-type mature Tgase (SEQ ID NO. 2) as determined in Example 3. Numbering of amino acid positions is in reference to the mature S. mobaraensis Tgase sequence depicted in SEQ ID NO. 2. A “+” indicates an improvement between 1.2 and 2-fold. A “++” indicates an improvement greater than 2-fold.
To evaluate chemostability, Tgase samples in cell-free extract were assayed for activity, using the assay described in Example 4B, immediately after expression and again following a 24 hour incubation at 20-30° C. Mature Tgase variant residual activity was normalized to the residual activity of the wild-type and results are depicted in Table 5.
Protein functionalization by Tgase variants was determined by the fluorogenic labeling of casein using monodansylcadaverine (e.g., a commercially available kit such as the Transglutaminase Fluorogenic Activity Assay Kit, T036, Zedira, Germany). Tgase activity was monitored by measuring fluorescence (excitation wavelength 332 nm; emission wavelength 500 nm) using a BioTek Synergy H1 microplate reader. Transglutaminase-catalyzed covalent coupling (crosslinking) of monodansylcadaverine with N,N-dimethylcasein produces a product that causes a shift in intensity and wavelength of fluorescence of the dansyl group now linked to the casein. The relative transglutaminase activity is shown by increase of fluorescence intensity over time. Enzyme variant loading was optimized based on expression levels, ensuring enzyme was the rate limiting factor. Briefly, cell-free reactions (set up as described in Example 2A) were first diluted 10-fold using phosphate buffer, pH 7.4, and a 5 microliter aliquot was analyzed.

Row | Molecule | Stability
1 | S5: Tgase variant S2P Q39N Q51E relative to SEQ ID NO: 2 (protein, UniProt P81453 77-407, looked up, variant S2P Q39N Q51E) Protein-glutamine …: DPDDRVTPPAEPLDRMPDPYRPSYGRAETVVNNYIRKWNQVYSHRDGRKQEMTEEQREWLSYGCVGVTWVNSGQYPTNRLAFASFDEDRFKNELKNGRPRSGETRAEFEGRVAKESFDEEKGFQRAREVASVMNRALENAHDESAYLDNLKKELANGNDALRNEDARSPFYSALRNTPSFKERNGGNHDPSRMKAVIYSKHFWSGQDRSSSADKRKYGDPDAFRPAPGTGLVDMSRDRNIPRSPTSPGEGFVNFDYGWFGAQTEADADKTVWTHGNHYHAPNGSLGAMHVYESKFRNWSEGYSDFDRGAYVITFIPKSWNTAPDKVKQGWP | + (an improvement between 1.2 and 2-fold)
2 | S15: Tgase variant S2P Q51P Q56M Q74A K91E relative to SEQ ID NO: 2 (protein, UniProt P81453 77-407, looked up, variant S2P Q51P Q56M Q74A K91E) Protein-glutamine …: DPDDRVTPPAEPLDRMPDPYRPSYGRAETVVNNYIRKWQQVYSHRDGRKQPMTEEMREWLSYGCVGVTWVNSGAYPTNRLAFASFDEDRFENELKNGRPRSGETRAEFEGRVAKESFDEEKGFQRAREVASVMNRALENAHDESAYLDNLKKELANGNDALRNEDARSPFYSALRNTPSFKERNGGNHDPSRMKAVIYSKHFWSGQDRSSSADKRKYGDPDAFRPAPGTGLVDMSRDRNIPRSPTSPGEGFVNFDYGWFGAQTEADADKTVWTHGNHYHAPNGSLGAMHVYESKFRNWSEGYSDFDRGAYVITFIPKSWNTAPDKVKQGWP | ++ (an improvement greater than 2-fold)
3 | S8: Tgase variant S2P K49T Q74F relative to SEQ ID NO: 2 (protein, UniProt P81453 77-407, looked up, variant S2P K49T Q74F) Protein-glutamine …: DPDDRVTPPAEPLDRMPDPYRPSYGRAETVVNNYIRKWQQVYSHRDGRTQQMTEEQREWLSYGCVGVTWVNSGFYPTNRLAFASFDEDRFKNELKNGRPRSGETRAEFEGRVAKESFDEEKGFQRAREVASVMNRALENAHDESAYLDNLKKELANGNDALRNEDARSPFYSALRNTPSFKERNGGNHDPSRMKAVIYSKHFWSGQDRSSSADKRKYGDPDAFRPAPGTGLVDMSRDRNIPRSPTSPGEGFVNFDYGWFGAQTEADADKTVWTHGNHYHAPNGSLGAMHVYESKFRNWSEGYSDFDRGAYVITFIPKSWNTAPDKVKQGWP | + (an improvement between 1.2 and 2-fold)
4 | S12: Tgase variant S2P Q124L K151R K152R relative to SEQ ID NO: 2 (protein, UniProt P81453 77-407, looked up, variant S2P Q124L K151R K152R) Protein-glutamine …: DPDDRVTPPAEPLDRMPDPYRPSYGRAETVVNNYIRKWQQVYSHRDGRKQQMTEEQREWLSYGCVGVTWVNSGQYPTNRLAFASFDEDRFKNELKNGRPRSGETRAEFEGRVAKESFDEEKGFLRAREVASVMNRALENAHDESAYLDNLRRELANGNDALRNEDARSPFYSALRNTPSFKERNGGNHDPSRMKAVIYSKHFWSGQDRSSSADKRKYGDPDAFRPAPGTGLVDMSRDRNIPRSPTSPGEGFVNFDYGWFGAQTEADADKTVWTHGNHYHAPNGSLGAMHVYESKFRNWSEGYSDFDRGAYVITFIPKSWNTAPDKVKQGWP | ++ (an improvement greater than 2-fold)
5 | S11: Tgase variant S2P Q124I K151R K152R relative to SEQ ID NO: 2 (protein, UniProt P81453 77-407, looked up, variant S2P Q124I K151R K152R) Protein-glutamine …: DPDDRVTPPAEPLDRMPDPYRPSYGRAETVVNNYIRKWQQVYSHRDGRKQQMTEEQREWLSYGCVGVTWVNSGQYPTNRLAFASFDEDRFKNELKNGRPRSGETRAEFEGRVAKESFDEEKGFIRAREVASVMNRALENAHDESAYLDNLRRELANGNDALRNEDARSPFYSALRNTPSFKERNGGNHDPSRMKAVIYSKHFWSGQDRSSSADKRKYGDPDAFRPAPGTGLVDMSRDRNIPRSPTSPGEGFVNFDYGWFGAQTEADADKTVWTHGNHYHAPNGSLGAMHVYESKFRNWSEGYSDFDRGAYVITFIPKSWNTAPDKVKQGWP | ++ (an improvement greater than 2-fold)
6 | S16: Tgase variant S2P Q50S Q74A K91H Q124L K151R K152R relative to SEQ ID NO: 2 (protein, UniProt P81453 77-407, looked up, variant S2P Q50S Q74A K91H Q124L K151R K152R) Protein-glutamine …: DPDDRVTPPAEPLDRMPDPYRPSYGRAETVVNNYIRKWQQVYSHRDGRKSQMTEEQREWLSYGCVGVTWVNSGAYPTNRLAFASFDEDRFHNELKNGRPRSGETRAEFEGRVAKESFDEEKGFLRAREVASVMNRALENAHDESAYLDNLRRELANGNDALRNEDARSPFYSALRNTPSFKERNGGNHDPSRMKAVIYSKHFWSGQDRSSSADKRKYGDPDAFRPAPGTGLVDMSRDRNIPRSPTSPGEGFVNFDYGWFGAQTEADADKTVWTHGNHYHAPNGSLGAMHVYESKFRNWSEGYSDFDRGAYVITFIPKSWNTAPDKVKQGWP | ++ (an improvement greater than 2-fold)
7 | S9: Tgase variant S2P Q51I K95I relative to SEQ ID NO: 2 (protein, UniProt P81453 77-407, looked up, variant S2P Q51I K95I) Protein-glutamine …: DPDDRVTPPAEPLDRMPDPYRPSYGRAETVVNNYIRKWQQVYSHRDGRKQIMTEEQREWLSYGCVGVTWVNSGQYPTNRLAFASFDEDRFKNELINGRPRSGETRAEFEGRVAKESFDEEKGFQRAREVASVMNRALENAHDESAYLDNLKKELANGNDALRNEDARSPFYSALRNTPSFKERNGGNHDPSRMKAVIYSKHFWSGQDRSSSADKRKYGDPDAFRPAPGTGLVDMSRDRNIPRSPTSPGEGFVNFDYGWFGAQTEADADKTVWTHGNHYHAPNGSLGAMHVYESKFRNWSEGYSDFDRGAYVITFIPKSWNTAPDKVKQGWP | + (an improvement between 1.2 and 2-fold)
8 | S7: Tgase variant S2P K49T Q74M relative to SEQ ID NO: 2 (protein, UniProt P81453 77-407, looked up, variant S2P K49T Q74M) Protein-glutamine …: DPDDRVTPPAEPLDRMPDPYRPSYGRAETVVNNYIRKWQQVYSHRDGRTQQMTEEQREWLSYGCVGVTWVNSGMYPTNRLAFASFDEDRFKNELKNGRPRSGETRAEFEGRVAKESFDEEKGFQRAREVASVMNRALENAHDESAYLDNLKKELANGNDALRNEDARSPFYSALRNTPSFKERNGGNHDPSRMKAVIYSKHFWSGQDRSSSADKRKYGDPDAFRPAPGTGLVDMSRDRNIPRSPTSPGEGFVNFDYGWFGAQTEADADKTVWTHGNHYHAPNGSLGAMHVYESKFRNWSEGYSDFDRGAYVITFIPKSWNTAPDKVKQGWP | + (an improvement between 1.2 and 2-fold)
9 | S6: Tgase variant S2P Q56M Q74S relative to SEQ ID NO: 2 (protein, UniProt P81453 77-407, looked up, variant S2P Q56M Q74S) Protein-glutamine …: DPDDRVTPPAEPLDRMPDPYRPSYGRAETVVNNYIRKWQQVYSHRDGRKQQMTEEMREWLSYGCVGVTWVNSGSYPTNRLAFASFDEDRFKNELKNGRPRSGETRAEFEGRVAKESFDEEKGFQRAREVASVMNRALENAHDESAYLDNLKKELANGNDALRNEDARSPFYSALRNTPSFKERNGGNHDPSRMKAVIYSKHFWSGQDRSSSADKRKYGDPDAFRPAPGTGLVDMSRDRNIPRSPTSPGEGFVNFDYGWFGAQTEADADKTVWTHGNHYHAPNGSLGAMHVYESKFRNWSEGYSDFDRGAYVITFIPKSWNTAPDKVKQGWP | ++ (an improvement greater than 2-fold)
10 | S10: Tgase variant S2P Q124E K151R K152R relative to SEQ ID NO: 2 (protein, UniProt P81453 77-407, looked up, variant S2P Q124E K151R K152R) Protein-glutamine …: DPDDRVTPPAEPLDRMPDPYRPSYGRAETVVNNYIRKWQQVYSHRDGRKQQMTEEQREWLSYGCVGVTWVNSGQYPTNRLAFASFDEDRFKNELKNGRPRSGETRAEFEGRVAKESFDEEKGFERAREVASVMNRALENAHDESAYLDNLRRELANGNDALRNEDARSPFYSALRNTPSFKERNGGNHDPSRMKAVIYSKHFWSGQDRSSSADKRKYGDPDAFRPAPGTGLVDMSRDRNIPRSPTSPGEGFVNFDYGWFGAQTEADADKTVWTHGNHYHAPNGSLGAMHVYESKFRNWSEGYSDFDRGAYVITFIPKSWNTAPDKVKQGWP | ++ (an improvement greater than 2-fold)
11 | S13: Tgase variant S2P Q124N K151R K152R relative to SEQ ID NO: 2 (protein, UniProt P81453 77-407, looked up, variant S2P Q124N K151R K152R) Protein-glutamine …: DPDDRVTPPAEPLDRMPDPYRPSYGRAETVVNNYIRKWQQVYSHRDGRKQQMTEEQREWLSYGCVGVTWVNSGQYPTNRLAFASFDEDRFKNELKNGRPRSGETRAEFEGRVAKESFDEEKGFNRAREVASVMNRALENAHDESAYLDNLRRELANGNDALRNEDARSPFYSALRNTPSFKERNGGNHDPSRMKAVIYSKHFWSGQDRSSSADKRKYGDPDAFRPAPGTGLVDMSRDRNIPRSPTSPGEGFVNFDYGWFGAQTEADADKTVWTHGNHYHAPNGSLGAMHVYESKFRNWSEGYSDFDRGAYVITFIPKSWNTAPDKVKQGWP | + (an improvement between 1.2 and 2-fold)
12 | S14: Tgase variant S2P Q50S Q51E Q56E relative to SEQ ID NO: 2 (protein, UniProt P81453 77-407, looked up, variant S2P Q50S Q51E Q56E) Protein-glutamine …: DPDDRVTPPAEPLDRMPDPYRPSYGRAETVVNNYIRKWQQVYSHRDGRKSEMTEEEREWLSYGCVGVTWVNSGQYPTNRLAFASFDEDRFKNELKNGRPRSGETRAEFEGRVAKESFDEEKGFQRAREVASVMNRALENAHDESAYLDNLKKELANGNDALRNEDARSPFYSALRNTPSFKERNGGNHDPSRMKAVIYSKHFWSGQDRSSSADKRKYGDPDAFRPAPGTGLVDMSRDRNIPRSPTSPGEGFVNFDYGWFGAQTEADADKTVWTHGNHYHAPNGSLGAMHVYESKFRNWSEGYSDFDRGAYVITFIPKSWNTAPDKVKQGWP | ++ (an improvement greater than 2-fold)
